These substances were tested against ppia_human PPIA (UniProt P62937).
ppia_human PPIA, sequence (P62937 whole entry, looked up): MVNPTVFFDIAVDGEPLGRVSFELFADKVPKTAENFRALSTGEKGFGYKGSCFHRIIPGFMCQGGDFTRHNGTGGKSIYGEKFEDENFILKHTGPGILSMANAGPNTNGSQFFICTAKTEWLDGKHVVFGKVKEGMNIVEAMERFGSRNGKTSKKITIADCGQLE

Substance | effect of a mutation on the interaction
Nucleoprotein (Human SARS coronavirus), P59595 I305A | decreasing interaction strength
Nucleoprotein (Human SARS coronavirus), P59595 Q307A | decreasing interaction strength
Nucleoprotein (Human SARS coronavirus), P59595 Q307D | decreasing interaction strength
Nucleoprotein (Human SARS coronavirus), P59595 W302A | decreasing interaction strength

From IntAct's records for PubMed 15358143
